Assay results reported in PMC9213775 (iScience, 2022).

Target: the molecule itself
Assay: AUC

B1: UDS1-His6 (natural protein, Aspergillus nidulans, UniProt Q5B1I5 1-941, looked up)
chain: MNGFDFRSSQSSYGDPRHFSDASYGVPQPPPTKVLLDGYRDALGPANAEKSLYNSANPTSHPRRSIPPSANDPVAMYLLTETAMGDSVNYEILSVEEVEGLKKELRVLSNRMNAAKRKLALELKLRDAAMSLSRLHHKEEHDVDGSGRNEPNTDKTNEELVHINRKCEELSMDIWYSERKVQEIQKRLLEHTAGVLQLTHKGLKKNSKNGMPHTPESLSSSNTVDDFDDRSLYKASDPLDGPETYETRAPPPDNLAHDNSMQETERKLESMSSRLRDMLLQLDPDSEFSQIPQPSTSGDSFEPSAMIDAHLRYIENGISALGSLPKADMASQSLDPVSEQQLVEMRTQLLSIMENPGLPRAQTLPTAPDPTDSDLAKHLTFLSVGINGLESRVEKLLEQKSILTTQIQQQRELNSKSDAERDAKIADLIEQLAHLRKELELAEREGQQSKEDHDLTLKELEDVRRELLESRETHSSRDLGNSKNEAQQHAEAEIARLQSVIQEIQQEKDEHCEAHRRAEAEIDRLQAVIHQIQQEKDEHREAHERAEAETTRLQTIVEEVQQEKDEQHEAHGRAVAEVTRLQDIIQKIEQEKIERHEADERAEAEIVRLRDTIREIQQEKEEHHEARVRLEGEVARLQGVIGQLQESAESRESAEQQVAQLEETIHQIRHDADIRIKEATDSRAQADAKIAQLEGAMNEVRESLESQLKEATEARNNAEENSTRLQKELTELERDVVRAQTELTMVKAELDGAYGTRAQRAAEAAADPALFHELDELKARNFEMAEELAALKAGKPGSGDVHNRVETLERELRETVDDYEAMTKASIEFEKERERFESMIDSLRDRCEQLETQLNEERISWMGANNSASSMGRDGPYETTSTMVLKNEFKKMMRDTRAENMKILKAEQEERRKLEAILRNLKREQANLSGKSNISRTVTAS
  stoichiometry N: 2
